Test results reported in paper PMC3528264.

Molecular target: AflJ (A. parasiticus BN9), yeast two-hybrid fusion (A. parasiticus) (UniProt O42716)
Experiment: two-hybrid

Chain of UniProt O42716 (O42716 whole entry, the tested form may be a part): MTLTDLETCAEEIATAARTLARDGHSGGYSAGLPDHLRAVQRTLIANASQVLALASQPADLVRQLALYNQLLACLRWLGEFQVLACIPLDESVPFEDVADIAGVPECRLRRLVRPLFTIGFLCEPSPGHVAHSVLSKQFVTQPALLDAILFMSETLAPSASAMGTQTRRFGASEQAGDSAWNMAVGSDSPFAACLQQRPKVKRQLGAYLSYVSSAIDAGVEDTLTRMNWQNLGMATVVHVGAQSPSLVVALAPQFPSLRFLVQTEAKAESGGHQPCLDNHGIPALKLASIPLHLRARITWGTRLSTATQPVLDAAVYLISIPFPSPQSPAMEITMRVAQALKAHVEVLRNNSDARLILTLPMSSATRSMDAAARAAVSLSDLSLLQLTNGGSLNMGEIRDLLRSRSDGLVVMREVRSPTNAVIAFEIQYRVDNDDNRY

AflR, Gal4 activation domain fusion (pGADT7) (from UniProt P43651 1-444) (natural protein)
colonies on QDO: 125 colonies
